The values below come from patent EP2072528A1 (Labeit, a person, dated 2009).

Sequences and labels used below:
B3: human MuRF1 polypeptide (muscle ring finger 1), full length (enzyme)
chain: MENLEKQLICPICLEMFTKPVVILPCQHNLCRKCANDIFQAANPYWTSRGSSVSMSGGRFRCPTCRHEVIMDRHGVYGLQRNLLVENIIDIYKQECSSRPLQKGSHPMCKEHEDEKINIYCLTCEVPTCSMCKVFGIHKACEVAPLQSVFQGQKTELNNCISMLVAGNDRVQTIITQLEDSRRVTKENSHQVKEELSQKFDTLYAILDEKKSELLQRITQEQEEKLSFIEALIQQYQEQLDKSTKLVETAIQSLDEPGGATFLLTAKQLIKSIVEASKGCQLGKTEQGFENMDFFTLDLEHIADALRAIDFGTDEEEEEFIEEEDQEEEESTEGKEEGHQ
notes: Full length bait in the yeast two-hybrid screens; also called TRIM63; RNF28

In test [1] the target is B3. Kind of test: yeast two-hybrid, full length bait.
Test [2] concerns the target B3. The test can be described thus: yeast two-hybrid.
Another test deals with ENO3 (NP_443739.2) (human, UniProt P13929 1-434, limits assumed). Kind of test: yeast two-hybrid.
The next test concerns the target T1, EEF1G (NP_001395.1) (human, UniProt P26641 1-437, limits assumed).
T1 construct: also called translation initiation factor EEF1G
The test can be described thus: yeast two-hybrid, full length bait.

For test [3], the target named is T2, sequestosome-1 (NP_003891.1) (human, UniProt Q13501 1-440, limits assumed).
T2 construct: also called SQSTM1
Kind of test: yeast two-hybrid, full length bait.

T1 sequence (P26641 whole entry): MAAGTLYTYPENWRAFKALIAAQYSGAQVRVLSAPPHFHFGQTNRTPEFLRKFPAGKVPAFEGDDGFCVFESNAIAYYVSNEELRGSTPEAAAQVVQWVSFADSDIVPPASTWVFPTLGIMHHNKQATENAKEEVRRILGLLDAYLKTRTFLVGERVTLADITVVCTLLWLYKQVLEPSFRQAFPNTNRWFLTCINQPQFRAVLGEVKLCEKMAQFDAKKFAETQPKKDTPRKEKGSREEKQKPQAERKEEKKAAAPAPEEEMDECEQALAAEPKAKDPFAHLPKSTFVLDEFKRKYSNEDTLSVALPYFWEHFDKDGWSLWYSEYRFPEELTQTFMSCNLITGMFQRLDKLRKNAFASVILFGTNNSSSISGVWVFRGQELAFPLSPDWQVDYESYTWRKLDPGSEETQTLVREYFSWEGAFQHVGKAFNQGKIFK
ENO3 (NP_443739.2), sequence (P13929 whole entry): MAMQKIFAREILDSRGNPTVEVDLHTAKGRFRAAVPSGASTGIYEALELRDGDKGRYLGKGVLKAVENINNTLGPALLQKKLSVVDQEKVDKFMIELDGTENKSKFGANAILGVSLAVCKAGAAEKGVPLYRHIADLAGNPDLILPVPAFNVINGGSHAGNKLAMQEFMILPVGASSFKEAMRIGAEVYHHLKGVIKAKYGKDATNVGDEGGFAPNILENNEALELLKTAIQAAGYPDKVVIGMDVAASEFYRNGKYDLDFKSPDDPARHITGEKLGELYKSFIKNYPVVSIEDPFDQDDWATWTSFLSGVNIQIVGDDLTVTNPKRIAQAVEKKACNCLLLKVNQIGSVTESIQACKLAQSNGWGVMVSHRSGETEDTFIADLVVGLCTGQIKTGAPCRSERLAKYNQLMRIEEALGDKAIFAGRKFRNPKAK

B1: FHL2 (NP_963851.2) (other, human, UniProt Q14192 1-279, looked up)
chain: MTERFDCHHCNESLFGKKYILREESPYCVVCFETLFANTCEECGKPIGCDCKDLSYKDRHWHEACFHCSQCRNSLVDKPFAAKEDQLLCTDCYSNEYSSKCQECKKTIMPGTRKMEYKGSSWHETCFICHRCQQPIGTKSFIPKDNQNFCVPCYEKQHAMQCVQCKKPITTGGVTYREQPWHKECFVCTACRKQLSGQRFTARDDFAYCLNCFCDLYAKKCAGCTNPISGLGGTKYISFEERQWHNDCFNCKKCSLSLVGRGFLTERDDILCPDCGKDI
Turning to B1, in test [1], the binding result is on record as “binds”.

B2: FABP4 (NP_001433.1) (other, human, UniProt P15090 1-132, looked up)
chain: MCDAFVGTWKLVSSENFDDYMKEVGVGFATRKVAGMAKPNMIISVNGDVITIKSESTFKNTEISFILGQEFDEVTADDRKVKSTITLDGGVLVHVQKWDGKSTTIKRKREDDKLVVECVMKGVTSTRVYERA
For B2, the binding result in test [2] is reported as “binds”. B3: the binding result (with ENO3 (NP_443739.2); with EEF1G (NP_001395.1); in test [3]) was “binds” each time.
